Common to all, as to conditions: both partners purified
Assay [1] concerns the target VP1 subunit of reduced O1M VLPs (Foot-and-mouth disease virus …, UniProt Q6PMW3). Nature of the assay: far-Western, overlay or dot blot.
The target in assay [2] is VP1 C-terminal peptide, residues 196-210 of O/UKG/34/2001 (Foot-and-mouth disease virus …, UniProt Q80B19). Nature of the assay: ELISA. For orientation: ELISA stands for enzyme-linked immunosorbent assay.
Assay [3] has as its target VP1 C-terminal peptide, residues 199-213 of O/UKG/34/2001 (Foot-and-mouth disease virus …, UniProt Q80B19). Briefly: ELISA.

Numbering of substitutions follows the chain as printed.

B1: Ab34 (antibody, V domains shown)
VH: QVQLRESGPSLVKPSQTLSLTCTVSGFSLTDVHVGWVRQTPGKALEWVGVICNRGAIGYNPALESRLSITEDNSKSQVSLSLSSVTTADTATYYCASSCRTEGDVGGDCDSDHFFCAWGQGLLVTVSS
VL: SYELTQPTSVSVALGQTAKITCSGDLLDRQYAQWYQQKPGQGPVRVIYKDSERPSGISDRFSGSSSGKTATLTVSGAQTEDEADYYCHSADSSHYPVFGSGSTLTVL
For B1, the binding result in assay [1] is listed as “binds”.

B2: Ab17 (antibody, V domains shown)
VH: QVQLRESGPSSLKPSQTLSLTCAVSGFSLSTYAVGWVRQAPGKALEWVGDITSSGDTFYNPALKSRFSITKDNSKNQVSLSVGSVTPEDTATFYCTRLTCGDDCSTAWHNFDAWGQGLLVTVSS
VL: SYELTQPTSVSVALGQTAKITCSGDLLDVQYTQWYQQKPGQGPVRVIYKDSERPSGISDRFSGSSSGKTATLIISGAQTEDEADYYCQSTDSSQYGIFGRGTTLTVL
B2: the binding result in assay [1], in assay [2] and in assay [3] was “binds” in each case.

B3: Ab49 (antibody, V domains shown)
VH: QVQLRESGPSLVKPSQTLSLTCTVSGFSLTNYAVGWVRQAPGKAIQSLSIISTTGDTYYNPALKSRLSITKDNSKSQVSLSVSSVAPEDTATYYCVKFCGNADSAGHGWGCDYGDNENWGQGLLVTVSS
VL: B1 VL with R29E, A32T, V74I, H88Q, A90F, D91Y, H94T, Y95D, S102T
For B3, the binding result in assay [1], in assay [2] and in assay [3] was “binds” in each case.

For the origin of these results see article PMC13216289 (NPJ Vaccines, 2026).
